Results published in US20260216242A1 (ALMAC DISCOVERY, published 2026).

T1: human ALPL on CHO cells (human, UniProt P05186 18-501)
T1 construct: whole, on cells; also called CHO-ALPL
T1 sequence (looked up): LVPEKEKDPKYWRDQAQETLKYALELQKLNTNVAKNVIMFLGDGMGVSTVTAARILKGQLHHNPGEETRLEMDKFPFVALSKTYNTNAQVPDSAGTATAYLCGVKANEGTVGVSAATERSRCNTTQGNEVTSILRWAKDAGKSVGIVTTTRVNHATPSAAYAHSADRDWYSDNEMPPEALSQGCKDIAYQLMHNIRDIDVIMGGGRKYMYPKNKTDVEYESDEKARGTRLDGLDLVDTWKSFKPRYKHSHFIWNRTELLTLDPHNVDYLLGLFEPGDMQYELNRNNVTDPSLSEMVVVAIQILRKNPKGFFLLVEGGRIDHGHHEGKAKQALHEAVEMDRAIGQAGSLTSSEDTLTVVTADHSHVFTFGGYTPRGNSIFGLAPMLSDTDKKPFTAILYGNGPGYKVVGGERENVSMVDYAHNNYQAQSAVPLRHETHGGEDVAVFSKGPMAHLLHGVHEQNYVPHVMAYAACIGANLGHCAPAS

B1: A06-E06-hFc-vcPAB-MMAE [G4S]1 (Fc fusion, DAR 4)
chain 1: QVHLVESGGGLVQAGGSLRLSCAASGRTFLSMGWFRQAPGKEREFVAAISWTGGSTGYADSVKGRFTISRESDKETMYLQMNSLKPEDTAVYYCAARGDVYYGGDDATRYKYWGQGTQVTVSSGGGGSEPKSSDKTHTCPPCPAPELLGGPCVFLFPPKPKDTLMISRTPEVTCVVVDVSHEDPEVKFNWYVDGVEVHNAKTKPREEQYNSTYRVVSVLTVLHQDWLNGKEYKCKVSNKALPAPIEKTISKAKGQPREPQVYTLPPSRDELTKNQVSLYCLVKGFYPSDIAVEWESNGQPENNYKTTPPVLDSDGSFFLYSKLTVDKSRWQQGNVFSCSVMHEALHNHYTQKSLCLSPGK
chain 2: QVHLVESGGGLVQAGGSLRLSCAASRRSFSEYAMGWFRQAPGKEREFVAAIGWSGVIEYADSVKGRFTISRDNAKDTVYLQMNSLKPEDTAVYYCAAGLGIRVVSQTPAYWGQGTQVTVSSGGGGSEPKSSDKTHTCPPCPAPELLGGPCVFLFPPKPKDTLMISRTPEVTCVVVDVSHEDPEVKFNWYVDGVEVHNAKTKPREEQYNSTYRVVSVLTVLHQDWLNGKEYKCKVSNKALPAPIEKTISKAKGQPREPQVYTLPPSRDELTKNQVSLTCLVKGFYPSDIAVEWESNGQPENNYKTTPPVLDSDGSFFLTSKLTVDKSRWQQGNVFSCSVMHEALHNHYTQKSLCLSPGK
modifications: MC-vc-PAB-MMAE on Cys 239 and Cys 442 (EU numbering)
notes: Biparatopic drug conjugate, DAR 4; also called #710
B2: A06-E10-hFc-vcPAB-MMAE [G4S]1 (Fc fusion, DAR 4)
chain 1: QVHLVESGGGLVQAGGSLRLSCAASGRTFLSMGWFRQAPGKEREFVAAISWTGGSTGYADSVKGRFTISRESDKETMYLQMNSLKPEDTAVYYCAARGDVYYGGDDATRYKYWGQGTQVTVSSGGGGSEPKSSDKTHTCPPCPAPELLGGPCVFLFPPKPKDTLMISRTPEVTCVVVDVSHEDPEVKFNWYVDGVEVHNAKTKPREEQYNSTYRVVSVLTVLHQDWLNGKEYKCKVSNKALPAPIEKTISKAKGQPREPQVYTLPPSRDELTKNQVSLYCLVKGFYPSDIAVEWESNGQPENNYKTTPPVLDSDGSFFLYSKLTVDKSRWQQGNVFSCSVMHEALHNHYTQKSLCLSPGK
chain 2: QVQLVESGGGLVQAGGSLRLSCAVSGRALSDYNIGWFRQAPGKEREFVARKTWDGSSTRYDDSVKGRFTVSIEDAKNTAYLQMSSLKTEDTAVYYCAAGRYSRARGWEYDYWGQGTQVTVSSGGGGSEPKSSDKTHTCPPCPAPELLGGPCVFLFPPKPKDTLMISRTPEVTCVVVDVSHEDPEVKFNWYVDGVEVHNAKTKPREEQYNSTYRVVSVLTVLHQDWLNGKEYKCKVSNKALPAPIEKTISKAKGQPREPQVYTLPPSRDELTKNQVSLTCLVKGFYPSDIAVEWESNGQPENNYKTTPPVLDSDGSFFLTSKLTVDKSRWQQGNVFSCSVMHEALHNHYTQKSLCLSPGK
modifications: MC-vc-PAB-MMAE on Cys 239 and Cys 442 (EU numbering)
notes: Biparatopic drug conjugate, DAR 4; also called #711
B3: A06-F05-hFc-vcPAB-MMAE [G4S]1 (Fc fusion, DAR 4)
chain 1: QVHLVESGGGLVQAGGSLRLSCAASGRTFLSMGWFRQAPGKEREFVAAISWTGGSTGYADSVKGRFTISRESDKETMYLQMNSLKPEDTAVYYCAARGDVYYGGDDATRYKYWGQGTQVTVSSGGGGSEPKSSDKTHTCPPCPAPELLGGPCVFLFPPKPKDTLMISRTPEVTCVVVDVSHEDPEVKFNWYVDGVEVHNAKTKPREEQYNSTYRVVSVLTVLHQDWLNGKEYKCKVSNKALPAPIEKTISKAKGQPREPQVYTLPPSRDELTKNQVSLYCLVKGFYPSDIAVEWESNGQPENNYKTTPPVLDSDGSFFLYSKLTVDKSRWQQGNVFSCSVMHEALHNHYTQKSLCLSPGK
chain 2: QVQLVESGGGLVQAGGSLRLSCAASGRAFGDYNIGWFRQAPGKEREFVARRTWDGSSTRYDDSVKGRFTVSIDNAKNTAYLQMNSLKTEDTAVYYCAAGRYSRVRGWEYDYWGQGTQVTVSSGGGGSEPKSSDKTHTCPPCPAPELLGGPCVFLFPPKPKDTLMISRTPEVTCVVVDVSHEDPEVKFNWYVDGVEVHNAKTKPREEQYNSTYRVVSVLTVLHQDWLNGKEYKCKVSNKALPAPIEKTISKAKGQPREPQVYTLPPSRDELTKNQVSLTCLVKGFYPSDIAVEWESNGQPENNYKTTPPVLDSDGSFFLTSKLTVDKSRWQQGNVFSCSVMHEALHNHYTQKSLCLSPGK
modifications: MC-vc-PAB-MMAE on Cys 239 and Cys 442 (EU numbering)
notes: Biparatopic drug conjugate, DAR 4
B4: A06-E10 hFc-vcPAB-MMAE [G4S]3 (Fc fusion, DAR 4)
chain 1: QVHLVESGGGLVQAGGSLRLSCAASGRTFLSMGWFRQAPGKEREFVAAISWTGGSTGYADSVKGRFTISRESDKETMYLQMNSLKPEDTAVYYCAARGDVYYGGDDATRYKYWGQGTQVTVSSGGGGSGGGGSGGGGSEPKSSDKTHTCPPCPAPELLGGPCVFLFPPKPKDTLMISRTPEVTCVVVDVSHEDPEVKFNWYVDGVEVHNAKTKPREEQYNSTYRVVSVLTVLHQDWLNGKEYKCKVSNKALPAPIEKTISKAKGQPREPQVYTLPPSRDELTKNQVSLYCLVKGFYPSDIAVEWESNGQPENNYKTTPPVLDSDGSFFLYSKLTVDKSRWQQGNVFSCSVMHEALHNHYTQKSLCLSPGK
chain 2: QVQLVESGGGLVQAGGSLRLSCAVSGRALSDYNIGWFRQAPGKEREFVARKTWDGSSTRYDDSVKGRFTVSIEDAKNTAYLQMSSLKTEDTAVYYCAAGRYSRARGWEYDYWGQGTQVTVSSGGGGSGGGGSGGGGSEPKSSDKTHTCPPCPAPELLGGPCVFLFPPKPKDTLMISRTPEVTCVVVDVSHEDPEVKFNWYVDGVEVHNAKTKPREEQYNSTYRVVSVLTVLHQDWLNGKEYKCKVSNKALPAPIEKTISKAKGQPREPQVYTLPPSRDELTKNQVSLTCLVKGFYPSDIAVEWESNGQPENNYKTTPPVLDSDGSFFLTSKLTVDKSRWQQGNVFSCSVMHEALHNHYTQKSLCLSPGK
modifications: MC-vc-PAB-MMAE on Cys 239 and Cys 442 (EU numbering)
notes: as for B3
B5: A06-F05 hFc-vcPAB-MMAE [G4S]3 (Fc fusion, DAR 4)
chain 1: QVHLVESGGGLVQAGGSLRLSCAASGRTFLSMGWFRQAPGKEREFVAAISWTGGSTGYADSVKGRFTISRESDKETMYLQMNSLKPEDTAVYYCAARGDVYYGGDDATRYKYWGQGTQVTVSSGGGGSGGGGSGGGGSEPKSSDKTHTCPPCPAPELLGGPCVFLFPPKPKDTLMISRTPEVTCVVVDVSHEDPEVKFNWYVDGVEVHNAKTKPREEQYNSTYRVVSVLTVLHQDWLNGKEYKCKVSNKALPAPIEKTISKAKGQPREPQVYTLPPSRDELTKNQVSLYCLVKGFYPSDIAVEWESNGQPENNYKTTPPVLDSDGSFFLYSKLTVDKSRWQQGNVFSCSVMHEALHNHYTQKSLCLSPGK
chain 2: QVQLVESGGGLVQAGGSLRLSCAASGRAFGDYNIGWFRQAPGKEREFVARRTWDGSSTRYDDSVKGRFTVSIDNAKNTAYLQMNSLKTEDTAVYYCAAGRYSRVRGWEYDYWGQGTQVTVSSGGGGSGGGGSGGGGSEPKSSDKTHTCPPCPAPELLGGPCVFLFPPKPKDTLMISRTPEVTCVVVDVSHEDPEVKFNWYVDGVEVHNAKTKPREEQYNSTYRVVSVLTVLHQDWLNGKEYKCKVSNKALPAPIEKTISKAKGQPREPQVYTLPPSRDELTKNQVSLTCLVKGFYPSDIAVEWESNGQPENNYKTTPPVLDSDGSFFLTSKLTVDKSRWQQGNVFSCSVMHEALHNHYTQKSLCLSPGK
modifications: MC-vc-PAB-MMAE on Cys 239 and Cys 442 (EU numbering)
notes: as for B3

Each binder was assayed against T1, human ALPL on CHO cells (assay: flow cytometry, CHO cells stably expressing human ALPL; PDC detected with FITC anti-human Ab).
Method: Biparatopic VHH-hFc drug conjugates were assessed for human ALPP, ALPPL2, ALPI and ALPL cell-surface binding by flow cytometry. Binders were screened on CHO cells stably expressing human ALPP, ALPPL2, ALPI or ALPL.
Cell surface binding of test agents to hALPP isoforms was characterized in four CHO-ALPP isoform transfectant cell lines (CHO-ALPP, CHO-ALPPL2, CHO-ALPI and CHO-ALPL) and the resulting KDapp values determined. Adherent cells were detached from tissue culture flasks by incubating with 0.1% EDTA/PBS solution at 37° C. for […] or until cells detached easily. Cells were re-suspended in ice-cold PBS/2% FCS in 15 ml tubes and centrifuged at 1700 rpm for 5 mins at 4° C. Supernatant was removed and the cell pellet re-suspended in PBS/2% FCS. […] Cells were incubated with 100 μl of test agents at a range of concentrations, plus controls for 1 hr on ice. The sample plate was centrifuged at 1700 rpm for 5 mins at 4° C. The supernatant was removed, and a wash performed by re-suspending the cell pellets in 0.25 mL of ice-cold PBS/2% FCS using a multichannel pipette. Samples were again centrifuged at 1700 rpm for 5 min at 4° C. Supernatant was removed and two further washes performed as described. After the final wash and centrifugation step, excess liquid was removed by blotting the plate on tissue paper. Binding of VHH-hFc agents was determined by adding 100 μl of Fitc-anti-human Ab (ThermoFisher) and incubating for 30 mins on ice in the dark. Wash steps were performed as described previously. All cell pellets were finally re-suspended in 0.28 ml of ice-cold PBS/2% FCS and left on ice in the dark prior to analysis on a Merck-Millipore Guava EasyCyte HT or Thermo Fisher Attune N×T flow cytometer.

Binding result, no binding (tested: 350 nM):
B1
B2
B3
B4
B5
